According to article PMC12835398:
Where no end group is shown, it is not given here.

Key:
[1] = molecular target: coagulation factor II thrombin receptor/protease activated receptor 1 (F2R/PAR1) (human (endogenous in ES-2)) (UniProt P25116)
[2] = molecular target: coagulation factor II thrombin receptor/protease activated receptor 1 (F2R/PAR1) (human (endogenous in ES-2)) (UniProt P25116); remark: listed apart in the source

Sequence of UniProt P25116 (P25116 42-425): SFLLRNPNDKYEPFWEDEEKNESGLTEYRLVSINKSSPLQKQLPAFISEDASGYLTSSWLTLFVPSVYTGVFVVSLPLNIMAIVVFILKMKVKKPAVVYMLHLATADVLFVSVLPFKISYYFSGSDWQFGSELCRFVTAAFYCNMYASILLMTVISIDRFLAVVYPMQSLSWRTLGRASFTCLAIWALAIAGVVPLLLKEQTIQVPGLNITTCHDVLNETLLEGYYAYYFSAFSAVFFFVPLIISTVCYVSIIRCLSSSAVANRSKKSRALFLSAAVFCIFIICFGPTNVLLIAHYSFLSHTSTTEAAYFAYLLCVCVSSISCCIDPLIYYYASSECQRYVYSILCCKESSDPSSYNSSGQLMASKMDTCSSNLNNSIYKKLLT

cellular uptake: DOX fluorescence (MFI per cell) of ES-2 cells by flow cytometry after 1 h at 37 °C, about 86 µM drug; LNP-DOX without peptide approximately 2000 [2]: 6000 MFI
Binder: TFLLRGSGSGSC(DSPE‑PEG2000‑maleimide) (also: on doxorubicin-loaded lipid nanoparticles) [… conjugated to DSPE-PEG-maleimide, on doxorubicin-loaded lipid nanoparticles (LNP-Peptide-DOX)]
cytotoxicity on ES-2 cells, MTT assay, 24 h; IC50 as DOX concentration; LNP-DOX without peptide 10.16 µM, free DOX 0.6 µM [1]: 1260 nM
